Laboratory results: PMC6163367

Assays:
[1] = molecular target: integrin α5β1 (mouse (endogenous in mouse synovial cells)) (UniProt P11688); experiment: flow cytometry on cells; mouse synovial cells blocked with 1% BSA, incubated with 1, 10 or 75 uM HM-3-Fc for 1 h at 4 °C, no blocking antibody; FITC-protein A as probe for the Fc part
[2] = molecular target: integrin αvβ3 (mouse (endogenous in mouse synovial cells)) (UniProt P43406); experiment: as above
[3] = molecular target: integrin α5β1 (mouse (endogenous in mouse synovial cells)) (UniProt P11688); experiment: flow cytometry on cells; mouse synovial cells first incubated with anti-αvβ3, anti-α5β1 or both blocking antibodies for half an hour at 4 °C, washed, then 75 uM HM-3-Fc for 1 h at 4 °C; FITC-protein A as probe
[4] = molecular target: integrin αvβ3 (mouse (endogenous in mouse synovial cells)) (UniProt P43406); experiment: as above

UniProt P11688, sequence (P11688 45-1053, chain 1 of 2): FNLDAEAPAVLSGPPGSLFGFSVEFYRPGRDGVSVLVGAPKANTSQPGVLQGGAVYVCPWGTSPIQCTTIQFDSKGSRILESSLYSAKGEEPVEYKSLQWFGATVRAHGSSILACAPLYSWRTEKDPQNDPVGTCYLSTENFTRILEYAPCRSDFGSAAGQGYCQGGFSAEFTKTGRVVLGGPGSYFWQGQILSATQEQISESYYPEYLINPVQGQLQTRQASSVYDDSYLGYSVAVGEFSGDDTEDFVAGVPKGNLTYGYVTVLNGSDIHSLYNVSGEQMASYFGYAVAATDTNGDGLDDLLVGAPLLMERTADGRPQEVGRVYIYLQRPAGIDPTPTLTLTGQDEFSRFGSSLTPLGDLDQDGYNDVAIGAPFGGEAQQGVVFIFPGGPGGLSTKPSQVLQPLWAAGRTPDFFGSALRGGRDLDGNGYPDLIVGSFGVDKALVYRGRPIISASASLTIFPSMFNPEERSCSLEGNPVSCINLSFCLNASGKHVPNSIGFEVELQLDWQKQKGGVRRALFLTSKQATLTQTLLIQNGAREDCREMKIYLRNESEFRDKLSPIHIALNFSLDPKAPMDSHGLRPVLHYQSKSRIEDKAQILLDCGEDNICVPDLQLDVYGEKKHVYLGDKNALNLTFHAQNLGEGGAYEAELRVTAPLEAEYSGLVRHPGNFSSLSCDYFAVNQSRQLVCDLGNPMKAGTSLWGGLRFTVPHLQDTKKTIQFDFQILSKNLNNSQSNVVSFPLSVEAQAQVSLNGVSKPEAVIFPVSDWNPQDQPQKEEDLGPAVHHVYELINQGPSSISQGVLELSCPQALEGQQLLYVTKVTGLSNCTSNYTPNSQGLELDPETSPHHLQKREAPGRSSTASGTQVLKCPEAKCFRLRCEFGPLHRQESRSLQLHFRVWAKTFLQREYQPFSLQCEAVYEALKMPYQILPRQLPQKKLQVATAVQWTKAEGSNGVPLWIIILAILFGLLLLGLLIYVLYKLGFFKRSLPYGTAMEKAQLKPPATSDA
UniProt P11688, sequence (P09055 21-798, chain 2 of 2, further chain): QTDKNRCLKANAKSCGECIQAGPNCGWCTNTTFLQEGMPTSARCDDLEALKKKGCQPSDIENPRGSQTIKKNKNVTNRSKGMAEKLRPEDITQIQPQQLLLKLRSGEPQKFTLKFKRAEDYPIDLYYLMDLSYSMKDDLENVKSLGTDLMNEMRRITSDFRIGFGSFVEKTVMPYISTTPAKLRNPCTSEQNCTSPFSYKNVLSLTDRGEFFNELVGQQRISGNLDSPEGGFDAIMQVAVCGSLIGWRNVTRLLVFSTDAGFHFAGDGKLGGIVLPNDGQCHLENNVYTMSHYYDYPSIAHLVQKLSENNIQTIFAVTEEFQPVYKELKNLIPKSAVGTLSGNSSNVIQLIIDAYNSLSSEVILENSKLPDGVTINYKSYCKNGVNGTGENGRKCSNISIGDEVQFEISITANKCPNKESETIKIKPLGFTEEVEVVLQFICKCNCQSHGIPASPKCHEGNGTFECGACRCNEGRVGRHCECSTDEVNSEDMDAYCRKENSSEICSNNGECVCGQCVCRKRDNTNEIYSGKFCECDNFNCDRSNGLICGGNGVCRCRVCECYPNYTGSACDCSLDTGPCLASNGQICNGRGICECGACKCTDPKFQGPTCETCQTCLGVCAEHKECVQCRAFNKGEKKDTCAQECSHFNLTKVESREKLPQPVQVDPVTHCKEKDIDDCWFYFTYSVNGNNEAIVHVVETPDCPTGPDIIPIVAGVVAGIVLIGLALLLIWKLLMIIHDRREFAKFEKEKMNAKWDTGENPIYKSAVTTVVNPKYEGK
UniProt P43406, sequence (P43406 31-1044, chain 1 of 2): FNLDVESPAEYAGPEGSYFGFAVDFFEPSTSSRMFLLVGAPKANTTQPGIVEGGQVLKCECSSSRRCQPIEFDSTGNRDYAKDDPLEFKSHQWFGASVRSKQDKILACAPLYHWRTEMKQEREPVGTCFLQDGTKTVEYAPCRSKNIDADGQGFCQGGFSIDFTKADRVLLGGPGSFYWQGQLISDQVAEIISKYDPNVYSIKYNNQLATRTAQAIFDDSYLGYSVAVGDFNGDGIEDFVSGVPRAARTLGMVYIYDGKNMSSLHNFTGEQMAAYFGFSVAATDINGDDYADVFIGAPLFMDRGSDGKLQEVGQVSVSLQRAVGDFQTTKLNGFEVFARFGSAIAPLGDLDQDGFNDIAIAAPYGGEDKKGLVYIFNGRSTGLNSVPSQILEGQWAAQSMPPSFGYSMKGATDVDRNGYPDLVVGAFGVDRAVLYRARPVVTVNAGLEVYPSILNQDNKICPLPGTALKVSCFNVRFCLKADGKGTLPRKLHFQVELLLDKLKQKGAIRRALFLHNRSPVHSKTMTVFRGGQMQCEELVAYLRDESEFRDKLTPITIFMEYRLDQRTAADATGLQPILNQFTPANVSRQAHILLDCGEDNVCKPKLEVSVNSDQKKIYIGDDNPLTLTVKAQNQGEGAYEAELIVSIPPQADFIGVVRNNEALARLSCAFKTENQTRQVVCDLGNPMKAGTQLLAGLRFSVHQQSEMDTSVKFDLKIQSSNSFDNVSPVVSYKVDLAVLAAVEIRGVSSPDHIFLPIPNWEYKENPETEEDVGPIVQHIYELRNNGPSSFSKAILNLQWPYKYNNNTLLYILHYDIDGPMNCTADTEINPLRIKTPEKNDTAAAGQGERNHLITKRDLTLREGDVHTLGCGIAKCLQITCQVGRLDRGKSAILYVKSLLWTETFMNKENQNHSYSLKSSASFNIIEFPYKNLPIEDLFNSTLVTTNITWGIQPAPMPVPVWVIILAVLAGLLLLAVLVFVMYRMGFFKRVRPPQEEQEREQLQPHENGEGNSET
UniProt P43406, sequence (O54890 26-787, chain 2 of 2, further chain): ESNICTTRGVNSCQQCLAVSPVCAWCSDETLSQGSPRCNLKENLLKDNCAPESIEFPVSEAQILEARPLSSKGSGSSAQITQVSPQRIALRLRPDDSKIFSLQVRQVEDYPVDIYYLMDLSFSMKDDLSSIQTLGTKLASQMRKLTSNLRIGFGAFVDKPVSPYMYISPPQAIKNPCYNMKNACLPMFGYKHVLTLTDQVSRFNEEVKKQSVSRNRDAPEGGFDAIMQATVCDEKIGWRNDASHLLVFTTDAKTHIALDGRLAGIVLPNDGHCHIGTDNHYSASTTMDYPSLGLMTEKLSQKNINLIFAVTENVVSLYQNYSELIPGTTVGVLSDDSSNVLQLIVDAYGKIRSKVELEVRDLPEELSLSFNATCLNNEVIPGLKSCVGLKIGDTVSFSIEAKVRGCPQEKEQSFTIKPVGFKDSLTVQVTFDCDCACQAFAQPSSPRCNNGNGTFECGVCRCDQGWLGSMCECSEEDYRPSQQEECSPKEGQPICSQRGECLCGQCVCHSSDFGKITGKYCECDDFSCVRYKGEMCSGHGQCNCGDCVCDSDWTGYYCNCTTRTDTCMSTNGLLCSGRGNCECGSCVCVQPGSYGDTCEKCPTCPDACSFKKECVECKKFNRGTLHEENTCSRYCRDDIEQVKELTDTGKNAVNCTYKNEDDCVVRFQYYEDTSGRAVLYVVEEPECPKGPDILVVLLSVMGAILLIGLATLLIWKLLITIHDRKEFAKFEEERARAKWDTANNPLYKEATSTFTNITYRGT

HM-3-Fc fusion protein was tested, and the binding rate (percent of cells positive) at 75 umol/L, unblocked cells that carry both integrins [1] was 70.7%, the binding rate (percent of cells positive) at 75 umol/L, unblocked cells that carry both integrins [2] was 70.7% and the binding rate (percent of cells positive) at 75 umol/L after block of αvβ3 and α5β1 together [3] was 0.01%. For the same substance, the binding rate (percent of cells positive) at 75 umol/L after block with an anti-α5β1 antibody [3] was 11.2%, the binding rate (percent of cells positive) at 75 umol/L after block of αvβ3 and α5β1 together [4] was 0.01% and the binding rate (percent of cells positive) at 75 umol/L after block with an anti-αvβ3 antibody [4] was 1.4%.
